This note sets out measurements from IntAct's records for PubMed 26342861.

To fix the notation:
B1: Wnt inhibitory factor 1 (Homo sapiens), Q9Y5W5 (parent)
chain: MARRSAFPAAALWLWSILLCLLALRAEAGPPQEESLYLWIDAHQARVLIGFEEDILIVSEGKMAPFTHDFRKAQQRMPAIPVNIHSMNFTWQAAGQAEYFYEFLSLRSLDKGIMADPTVNVPLLGTVPHKASVVQVGFPCLGKQDGVAAFEVDVIVMNSEGNTILQTPQNAIFFKTCQQAECPGGCRNGGFCNERRICECPDGFHGPHCEKALCTPRCMNGGLCVTPGFCICPPGFYGVNCDKANCSTTCFNGGTCFYPGKCICPPGLEGEQCEISKCPQPCRNGGKCIGKSKCKCSKGYQGDLCSKPVCEPGCGAHGTCHEPNKCQCQEGWHGRHCNKRYEASLIHALRPAGAQLRQHTPSLKKAEERRDPPESNYIW
partner: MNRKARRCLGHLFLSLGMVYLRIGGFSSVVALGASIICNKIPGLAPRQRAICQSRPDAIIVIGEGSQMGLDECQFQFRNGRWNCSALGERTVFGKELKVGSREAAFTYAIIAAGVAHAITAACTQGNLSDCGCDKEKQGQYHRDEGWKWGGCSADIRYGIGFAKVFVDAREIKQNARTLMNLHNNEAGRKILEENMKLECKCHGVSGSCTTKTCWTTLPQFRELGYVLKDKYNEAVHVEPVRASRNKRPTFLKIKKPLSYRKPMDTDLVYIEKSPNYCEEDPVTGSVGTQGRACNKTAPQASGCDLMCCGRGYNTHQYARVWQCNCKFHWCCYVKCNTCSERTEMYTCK
B2: Wnt inhibitory factor 1 (Homo sapiens), Q9Y5W5 (parent)
chain: B1 chain
partner: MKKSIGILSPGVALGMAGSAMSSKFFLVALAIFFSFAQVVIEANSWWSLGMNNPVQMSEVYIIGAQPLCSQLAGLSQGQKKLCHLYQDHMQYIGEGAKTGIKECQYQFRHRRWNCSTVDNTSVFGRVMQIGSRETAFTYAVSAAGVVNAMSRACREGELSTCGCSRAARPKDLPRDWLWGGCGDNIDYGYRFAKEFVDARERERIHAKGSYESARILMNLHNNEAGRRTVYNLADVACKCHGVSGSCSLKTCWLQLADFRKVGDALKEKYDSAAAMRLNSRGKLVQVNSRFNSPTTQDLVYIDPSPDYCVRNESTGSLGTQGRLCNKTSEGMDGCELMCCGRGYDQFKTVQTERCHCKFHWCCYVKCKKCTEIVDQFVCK

The first assay covers variants of B1. To be noted: with wnt7a_human WNT7A.
As for MARRSAFPAAALWLWSILLCLLALRAEAGPPQEESLYLWIDAHQARVLIGFEEDILIVSEGKMAPFTHDFRKAQQRMPAIPVNIHSMNFTWQAAGQAEYFYEFLSLRSLDKGIMADPTVNVPLLGTVPHKASVVQVGFPCLGKQDGVAAFEVDVRVMNSEGNTILQTPQNAIFFKTCQQAECPGGCRNGGFCNERRICECPDGFHGPHCEKALCTPRCMNGGLCVTPGFCICPPGFYGVNCDKANCSTTCFNGGTCFYPGKCICPPGLEGEQCEISKCPQPCRNGGKCIGKSKCKCSKGYQGDLCSKPVCEPGCGAHGTCHEPNKCQCQEGWHGRHCNKRYEASLIHALRPAGAQLRQHTPSLKKAEERRDPPESNYIW [I155R], the “effect of a mutation on the interaction” value is given as “decreasing interaction”.

MARRSAFPAAALWLWSILLCLLALRAEAGPPQEESLYLWIDAHQARVLIGFEEDILIVSEGKMAPFTHDFRKAQQRMPAIPVNIHSMNFTWQAAGQAEYFYEFLSLRSLDKGIMADPTVNVPRLGTVPHKASVVQVGFPCLGKQDGVAAFEVDVIVMNSEGNTILQTPQNAIFFKTCQQAECPGGCRNGGFCNERRICECPDGFHGPHCEKALCTPRCMNGGLCVTPGFCICPPGFYGVNCDKANCSTTCFNGGTCFYPGKCICPPGLEGEQCEISKCPQPCRNGGKCIGKSKCKCSKGYQGDLCSKPVCEPGCGAHGTCHEPNKCQCQEGWHGRHCNKRYEASLIHALRPAGAQLRQHTPSLKKAEERRDPPESNYIW [L123R]: the “effect of a mutation on the interaction” value is “decreasing interaction”.

MARRSAFPAAALWLWSILLCLLALRAEAGPPQEESLYLWIDAHQARVLIGFEEDILIVSEGKMAPFTHDFRKAQQRMPAIPVNIHSMNFTWQAAGQAEYFYEFLSLRSLDKGIMADPTVNVPLLGTVPHKASVVQVGFPCLGKQDGVAAFEVDVIVMNSEGNTILQTPQNARFFKTCQQAECPGGCRNGGFCNERRICECPDGFHGPHCEKALCTPRCMNGGLCVTPGFCICPPGFYGVNCDKANCSTTCFNGGTCFYPGKCICPPGLEGEQCEISKCPQPCRNGGKCIGKSKCKCSKGYQGDLCSKPVCEPGCGAHGTCHEPNKCQCQEGWHGRHCNKRYEASLIHALRPAGAQLRQHTPSLKKAEERRDPPESNYIW [I172R]: the “effect of a mutation on the interaction” value is given as “decreasing interaction”.

Variants of B1 are the subject of a further assay. To be noted: with wnt7a_human WNT7A. This is another data set of the same source.
Regarding MARRSAFPAAALWLWSILLCLLALRAEAGPPQEESLYLWIDAHQARVLIGFEEDILIVSEGKMAPFTHDFRKAQQRMPAIPVNIHSMNFTWQAAGQAEYFYEFLSLRSLDKGIMADPTVNVPLLGTVPHKASVVQVGFPCLGKQDGVAAFEVDVRVMNSEGNTILQTPQNAIFFKTCQQAECPGGCRNGGFCNERRICECPDGFHGPHCEKALCTPRCMNGGLCVTPGFCICPPGFYGVNCDKANCSTTCFNGGTCFYPGKCICPPGLEGEQCEISKCPQPCRNGGKCIGKSKCKCSKGYQGDLCSKPVCEPGCGAHGTCHEPNKCQCQEGWHGRHCNKRYEASLIHALRPAGAQLRQHTPSLKKAEERRDPPESNYIW [I155R], the “effect of a mutation on the interaction” value is reported as “increasing interaction”.

Variants of B2 are the subject of a further assay. Particulars: with wnt5a_human WNT5A.
As for MARRSAFPAAALWLWSILLCLLALRAEAGPPQEESLYLWIDAHQARVLIGFEEDILIVSEGKMAPFTHDFRKAQQRMPAIPVNIHSMNFTWQAAGQAEYFYEFLSLRSLDKGIMADPTVNVPLLGTVPHKASVVQVGFPCLGKQDGVAAFEVDVRVMNSEGNTILQTPQNAIFFKTCQQAECPGGCRNGGFCNERRICECPDGFHGPHCEKALCTPRCMNGGLCVTPGFCICPPGFYGVNCDKANCSTTCFNGGTCFYPGKCICPPGLEGEQCEISKCPQPCRNGGKCIGKSKCKCSKGYQGDLCSKPVCEPGCGAHGTCHEPNKCQCQEGWHGRHCNKRYEASLIHALRPAGAQLRQHTPSLKKAEERRDPPESNYIW [I155R], the “effect of a mutation on the interaction” value is on record as “disrupting interaction”.

The variants in another assay derive from B2. To be noted: with wnt5a_human WNT5A. The source holds these as a separate data set.
With MARRSAFPAAALWLWSILLCLLALRAEAGPPQEESLYLWIDAHQARVLIGFEEDILIVSEGKMAPFTHDFRKAQQRMPAIPVNIHSMNFTWQAAGQAEYFYEFLSLRSLDKGIMADPTVNVPLLGTVPHKASVVQVGFPCLGKQDGVAAFEVDVRVMNSEGNTILQTPQNAIFFKTCQQAECPGGCRNGGFCNERRICECPDGFHGPHCEKALCTPRCMNGGLCVTPGFCICPPGFYGVNCDKANCSTTCFNGGTCFYPGKCICPPGLEGEQCEISKCPQPCRNGGKCIGKSKCKCSKGYQGDLCSKPVCEPGCGAHGTCHEPNKCQCQEGWHGRHCNKRYEASLIHALRPAGAQLRQHTPSLKKAEERRDPPESNYIW [I155R], the “effect of a mutation on the interaction” value is listed as “decreasing interaction”.
